Source: paper PMC5698441, “Molecular basis of AKAP79 regulation by calmodulin” (Nature Communications, 2017)

Legend:
calcineurin, WT = calcineurin, WT (UniProt Q08209)
calcineurin I396A/I400A = calcineurin I396A/I400A (UniProt Q08209)

With “human CaM, untagged (pET28-a) (from UniProt P0DP23 1-149) (natural protein)” the half-maximal CaM concentration (KCaM) for activation of phosphatase activity against a phosphorylated RII peptide (calcineurin, WT) was 30 nM and the half-maximal CaM concentration (KCaM) for activation of phosphatase activity against a phosphorylated RII peptide (calcineurin I396A/I400A) was 670 nM.
